Data: article doi:10.1101/2025.06.27.661974 (bioRxiv, 2025)

Target: the molecule itself
Experiment: SEC-MALS

B1: Flag-UBE2O-TwinStrep (recombinant Homo sapiens UBE2O, purified) (enzyme, human, UniProt Q9C0C9 1-1292, looked up)
chain: MADPAAPTPAAPAPAQAPAPAPEAVPAPAAAPVPAPAPASDSASGPSSDSGPEAGSQRLLFSHDLVSGRYRGSVHFGLVRLIHGEDSDSEGEEEGRGSSGCSEAGGAGHEEGRASPLRRGYVRVQWYPEGVKQHVKETKLKLEDRSVVPRDVVRHMRSTDSQCGTVIDVNIDCAVKLIGTNCIIYPVNSKDLQHIWPFMYGDYIAYDCWLGKVYDLKNQIILKLSNGARCSMNTEDGAKLYDVCPHVSDSGLFFDDSYGFYPGQVLIGPAKIFSSVQWLSGVKPVLSTKSKFRVVVEEVQVVELKVTWITKSFCPGGTDSVSPPPSVITQENLGRVKRLGCFDHAQRQLGERCLYVFPAKVEPAKIAWECPEKNCAQGEGSMAKKVKRLLKKQVVRIMSCSPDTQCSRDHSMEDPDKKGESKTKSEAESASPEETPDGSASPVEMQDEGAEEPHEAGEQLPPFLLKEGRDDRLHSAEQDADDEAADDTDDTSSVTSSASSTTSSQSGSGTSRKKSIPLSIKNLKRKHKRKKNKITRDFKPGDRVAVEVVTTMTSADVMWQDGSVECNIRSNDLFPVHHLDNNEFCPGDFVVDKRVQSCPDPAVYGVVQSGDHIGRTCMVKWFKLRPSGDDVELIGEEEDVSVYDIADHPDFRFRTTDIVIRIGNTEDGAPHKEDEPSVGQVARVDVSSKVEVVWADNSKTIILPQHLYNIESEIEESDYDSVEGSTSGASSDEWEDDSDSWETDNGLVEDEHPKIEEPPIPPLEQPVAPEDKGVVISEEAATAAVQGAVAMAAPMAGLMEKAGKDGPPKSFRELKEAIKILESLKNMTVEQLLTGSPTSPTVEPEKPTREKKFLDDIKKLQENLKKTLDNVAIVEEEKMEAVPDVERKEDKPEGQSPVKAEWPSETPVLCQQCGGKPGVTFTSAKGEVFSVLEFAPSNHSFKKIEFQPPEAKKFFSTVRKEMALLATSLPEGIMVKTFEDRMDLFSALIKGPTRTPYEDGLYLFDIQLPNIYPAVPPHFCYLSQCSGRLNPNLYDNGKVCVSLLGTWIGKGTERWTSKSSLLQVLISIQGLILVNEPYYNEAGFDSDRGLQEGYENSRCYNEMALIRVVQSMTQLVRRPPEVFEQEIRQHFSTGGWRLVNRIESWLETHALLEKAQALPNGVPKASSSPEPPAVAELSDSGQQEPEDGGPAPGEASQGSDSEGGAQGLASASRDHTDQTSETAPDASVPPSVKPKKRRKSYRSFLPEKSGYPDIGFPLFPLSKGFIKSIRGVLTQFRAALLEAGMPECTEDK
stoichiometry N: 2
